We go through one molecule from US20200182882A1.

Assay [1] deals with T1, CD20 on a CD20 expressing target cell line (Wil2-S) (UniProt P11836).
T1 sequence (looked up): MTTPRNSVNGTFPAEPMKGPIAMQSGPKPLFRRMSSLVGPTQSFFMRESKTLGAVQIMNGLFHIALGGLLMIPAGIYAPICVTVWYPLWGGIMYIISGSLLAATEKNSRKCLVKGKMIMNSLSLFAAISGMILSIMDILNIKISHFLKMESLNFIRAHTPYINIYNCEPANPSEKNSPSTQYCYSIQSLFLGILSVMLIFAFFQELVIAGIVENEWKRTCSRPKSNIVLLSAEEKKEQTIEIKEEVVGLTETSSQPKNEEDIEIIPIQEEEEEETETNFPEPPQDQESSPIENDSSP
The assay can be described thus: cell-based or functional assay.

For assay [2], the target named is CD3 (TCR complex subunit) on T cells (Jurkat reporter cells; human PBMC T cells) (human) (UniProt P07766). Put plainly: cell-based or functional assay.
Sequence of UniProt P07766 (P07766 23-207, one chain of several): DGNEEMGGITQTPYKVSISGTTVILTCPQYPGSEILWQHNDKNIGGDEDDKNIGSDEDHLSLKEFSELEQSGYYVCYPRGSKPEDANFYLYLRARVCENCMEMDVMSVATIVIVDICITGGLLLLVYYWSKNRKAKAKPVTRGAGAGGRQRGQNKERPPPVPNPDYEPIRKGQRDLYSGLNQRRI

B1: αCD20/αCD3 TDB (bispecific antibody, from a related filing, V domains shown)
VH 1: EVQLVESGGGLVQPGGSLRLSCAASGYTFTSYNMHWVRQAPGKGLEWVGAIYPGNGDTSYNQKFKGRFTISVDKSKNTLYLQMNSLRAEDTAVYYCARVVYYSNSYWYFDVWGQGTLVTVSS
VL 1: DIQMTQSPSSLSASVGDRVTITCRASSSVSYMHWYQQKPGKAPKPLIYAPSNLASGVPSRFSGSGSGTDFTLTISSLQPEDFATYYCQQWSFNPPTFGQGTKVEIKR
VH 2: EVQLVQSGAEVKKPGASVKVSCKASGYTFTNYYIHWVRQAPGQGLEWIGWIYPGDGNTKYNEKFKGRATLTADTSTSTAYLELSSLRSEDTAVYYCARDSYSNYYFDYWGQGTLVTVSS
VL 2: DIVMTQSPDSLAVSLGERATINCKSSQSLLNSRTRKNYLAWYQQKPGQPPKLLIYWASTRESGVPDRFSGSGSGTDFTLTISSLQAEDVAVYYCTQSFILRTFGQGTKVEIK
Consider B1, for which, in assay [1], the EC50 of T cell activation (CD69+/CD25+), Human PBMC Donor 1, in presence of target cells is 5.5 ng/mL; the EC50 of T cell activation (CD69+/CD25+), Human PBMC Donor 2, in presence of target cells was 4.4 ng/mL; the EC50 of luciferase reporter activity, Jurkat/NFκBLuc, in presence of target cells was 1.3 ng/mL. In addition, in assay [2], the EC50 of T cell activation (CD69+/CD25+), Human PBMC Donor 1, in presence of target cells was 5.5 ng/mL; the EC50 of T cell activation (CD69+/CD25+), Human PBMC Donor 2, in presence of target cells turned out to be 4.4 ng/mL; the EC50 of luciferase reporter activity, Jurkat/NFκBLuc, in presence of target cells amounted to 1.3 ng/mL; the luciferase activity of Jurkat/NFκBLuciferase clone 2 in the presence of a CD20 expressing target cell line, against anti-CD3 homodimer was found to be 1000 fold.
